Results reported in PMC9927398.

Tests used:
CRP WT (CRPMtb) [1] = molecular target: T1, CRP WT (CRPMtb) (Mycobacterium tuberculosis (strain for …, UniProt P9WMH3 1-224)); experiment: competition; conditions: protein: recombinant; tags: His tag (Ni2+ purified; pET28a); chain copies: 2; blunt
T1 sequence: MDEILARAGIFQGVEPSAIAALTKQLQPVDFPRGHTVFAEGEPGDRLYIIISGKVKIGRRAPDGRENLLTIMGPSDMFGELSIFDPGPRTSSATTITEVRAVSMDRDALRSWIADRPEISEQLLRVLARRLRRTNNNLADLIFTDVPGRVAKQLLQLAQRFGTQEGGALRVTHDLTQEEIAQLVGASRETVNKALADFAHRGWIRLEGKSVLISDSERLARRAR

CRP WT (CRPMtb) [2] = molecular target: T1, CRP WT (CRPMtb); experiment: EMSA; no cAMP; 5 and 15 uM protein; conditions: protein: recombinant; tags: His tag (Ni2+ purified; pET28a); chain copies: 2; blunt

| Binder | binding result (CRP WT (CRPMtb) [1]) | binding result (CRP WT (CRPMtb) [2]) |
| --- | --- | --- |
| 2D3 unlabeled competitor (dsDNA) DNA 1: CTCTATGTGACGAAGCCCACATCGAC DNA 2: GTCGATGTGGGCTTCGTCACATAGAG | binds |  |
| 2D3 (dsDNA) DNA 1: CTCTATGTGACGAAGCCCACATCGAC DNA 2: GTCGATGTGGGCTTCGTCACATAGAG |  | binds |
